Test results published in article PMC9274624.

Experiments:
Experiment in all cases: SPR
[1] = target: raccoon dog ACE2 extracellular domain (residues 1-740) fused with the Fc domain of mouse IgG (raccoon dog) (UniProt B4XEP4)
[2] = target: pig ACE2 extracellular domain (residues 1-740) fused with the Fc domain of mouse IgG (pig) (UniProt K7GLM4)
[3] = target: sheep ACE2 extracellular domain (residues 1-740) fused with the Fc domain of mouse IgG (sheep)
[4] = target: fox ACE2 extracellular domain (residues 1-740) fused with the Fc domain of mouse IgG (fox)
[5] = target: monkey ACE2 extracellular domain (residues 1-740) fused with the Fc domain of mouse IgG (monkey) (UniProt F7AH40)
[6] = target: fulvous fruit bat ACE2 extracellular domain (residues 1-740) fused with the Fc domain of mouse IgG (fulvous fruit bat)
[7] = target: rabbit ACE2 extracellular domain (residues 1-740) fused with the Fc domain of mouse IgG (rabbit) (UniProt G1TEF4)
[8] = target: mink ACE2 extracellular domain (residues 1-740) fused with the Fc domain of mouse IgG (mink)
[9] = target: horse ACE2 extracellular domain (residues 1-740) fused with the Fc domain of mouse IgG (horse) (UniProt F6V9L3)
[10] = target: wild Bactrian camel ACE2 extracellular domain (residues 1-740) fused with the Fc domain of mouse IgG (wild Bactrian camel)
[11] = target: alpaca ACE2 extracellular domain (residues 1-740) fused with the Fc domain of mouse IgG (alpaca)
[12] = target: big-eared horseshoe bat ACE2 extracellular domain (residues 1-740) fused with the Fc domain of mouse IgG (big-eared horseshoe bat)
[13] = target: goat ACE2 extracellular domain (residues 1-740) fused with the Fc domain of mouse IgG (goat)

Substance: SARS-CoV-2 Delta RBD (residues 319-541) (from UniProt P0DTC2 319-541) (domain or fragment)
- Kd [1]: 124 nM
- Kd [2]: 64.4 nM
- Kd [3]: 61 nM
- Kd [4]: 35.6 nM
- Kd [5]: 16.5 nM
- Kd [6]: 200 nM
- Kd [7]: 58.3 nM
- Kd [8]: 288 nM
- Kd [9]: 79 nM
- Kd [10]: 233 nM
- Kd [11]: 381 nM
- Kd [12]: 49.6 nM
- Kd [13]: 66.2 nM
